Experimental data published in PMC4498383.

Biological target: apolipoprotein E on the surface of very low-density lipoproteins (human) (UniProt P02649)
Assay: AFM-based force spectroscopy; DENV C covalently attached to the AFM tip; VLDL adsorbed on freshly cleaved mica; TEE-KCl buffer pH 7.4 (20 mM Tris-HCl, 100 mM KCl, 1 mM EDTA, 1 mM EGTA); loading rate 4 nN/s; with or without rabbit anti-human APOE antibody (1 or 100 ug/L) or an isotype-matched control antibody

UniProt P02649, sequence (P02649 19-317): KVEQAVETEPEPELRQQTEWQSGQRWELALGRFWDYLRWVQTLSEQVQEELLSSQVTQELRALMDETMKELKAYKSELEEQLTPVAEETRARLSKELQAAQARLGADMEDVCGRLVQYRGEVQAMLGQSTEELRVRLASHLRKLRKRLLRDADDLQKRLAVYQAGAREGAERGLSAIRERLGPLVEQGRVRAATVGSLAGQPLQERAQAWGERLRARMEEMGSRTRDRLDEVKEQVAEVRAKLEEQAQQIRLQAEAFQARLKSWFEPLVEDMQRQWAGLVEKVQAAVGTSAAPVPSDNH

Dengue virus capsid (C) protein (natural protein)
rupture force, 1st Gaussian peak (DENV C-VLDL, no antibody): 29.7 pN
rupture force, 2nd Gaussian peak (DENV C-VLDL, no antibody): 52.1 pN
